These results are taken from patent US20180057595A1 (CELLDEX THERAPEUTICS, published 2018).

For assay [1], the target named is T1, human MET, cell-surface expressed (human, UniProt P08581 25-1390). The experiment in a line: cell-based or functional assay.
Assay [2] deals with MET without the 47 amino acids encoded by exon 14 (H596 cells) (human) (UniProt P08581). The experiment in a line: cell-based or functional assay.
The target in assay [3] is T1, human MET, cell-surface expressed. The experiment in a line: FACS competition on A549 cells; competitor Ab237C. The method, then: The binding of anti-MET antibodies to cell surface MET was analyzed by competition FACS analysis using A549 NSCLC cells (ATCC cat. no. CCL-185). […] A total of 3×10⁵ A549 NSCLC cells were added per dilution of antibody and incubated on ice for 1 hour. Cells were washed and a 1:100 dilution of PE-labeled goat anti-rat IgG antibody (BioLegend cat. no. 405406) in FACS buffer was added before incubation on ice for 1 hour. […] The geometric mean fluorescence intensity was plotted against antibody concentration. The IC₅₀ of each of the test antibodies was calculated relative to the IC₅₀ of the reference antibody.

Assay [4] concerns the target T2, human MET-ECD with a His tag (MET-ECD-His) (human, UniProt P08581 25-932).
T2 construct: The ELISA sections speak of MET-ECD, MET-ECD-His or His-tagged MET extracellular domain; also called hu-MET-ECD; human cMET ECD
As to the kind of experiment: competition ELISA on immobilised MET-ECD; competitor Ab237C.
Description: The binding of anti-MET antibodies to recombinant MET extracellular domain (“MET-ECD”) was analyzed by competition ELISA. […] The reaction was stopped with 3M HCl, absorbance read at 450 nm on a Dynex Technologies MRX TC II plate reader and the binding curves plotted. Binding curves were used to calculate IC₅₀ values for each test antibody normalized to the IC₅₀ of the reference antibody.

The molecule “HGF (from UniProt P14210 32-728) (ligand)” showed a receptor degradation, cell lines expressing wild-type MET such as A549 and U87MG, 1 nM HGF in assay [1] of 80%. In addition, the receptor degradation, H596 cells, 1 nM HGF for 24 hrs in assay [2] is 30%.

B1: Ab241 (antibody, human IgG1, V domains shown)
VH: EVQLVESGGGLVQPGGSLKLSCAASGFTFSDSYMAWVRQAPGKGLEWVASISSDGGGTYYRDSVKGRFTISRDNAKSSLYLQMDSLRTEDTATYYCTTEGIYTTDYYPYCFNYWGQGVMVTVSS
VL: DIQMTQSPSSLSASVGDRVTITCLASADIHSNLAWYQQKPGKAPQLLIYYGNNLNDGVPSRFSGSGSGTDYTLKINSLQSEDVAIYFCQQSYDSPPTFGQGTKLEIKR
notes: Composite human (humanized) antibody, human IgG1, kappa
For B1, in assay [3], the “relative IC50 (against Ab237C)” value was ~1.22 relative to IC50 of Ab237C. For the same molecule, in assay [4], the “IC50 relative to the IC50 of Ab237C” value is ~0.97 relative to IC50 of Ab237C.
